Target: T1, β-clamp protein from E. coli (E. coli, UniProt P0A988 1-366, labeled with a fluorescent molecule (site not stated))
T1 construct: Fluorescently labelled for microscale thermophoresis; also called sliding clamp
Assay: microscale thermophoresis, fluorescently labelled β-clamp, peptide titrated (table cell the 66th table, row 38, column 4 prints 'Nd')

T1 sequence (P0A988 whole entry): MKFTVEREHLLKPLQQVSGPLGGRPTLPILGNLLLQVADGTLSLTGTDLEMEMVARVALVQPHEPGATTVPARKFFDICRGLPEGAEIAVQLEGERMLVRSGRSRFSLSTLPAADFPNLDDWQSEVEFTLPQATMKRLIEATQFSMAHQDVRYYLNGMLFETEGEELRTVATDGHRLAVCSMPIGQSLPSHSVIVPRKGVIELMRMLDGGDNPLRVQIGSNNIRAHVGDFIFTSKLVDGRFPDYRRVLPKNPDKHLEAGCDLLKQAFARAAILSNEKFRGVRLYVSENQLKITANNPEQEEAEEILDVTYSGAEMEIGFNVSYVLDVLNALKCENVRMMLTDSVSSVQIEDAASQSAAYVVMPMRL

B1: R11 peptide (SEQ ID NO: 337) (peptide)
peptide: RRRRRRRRRRR
notes: Control peptide without APIM motif; also called cell penetrating peptide
  binding result: no binding
